This series in a line: protein stability index of a GFP-peptide fusion (GPS, HEK-293T) (PSI 1-6); higher = more stable. To be noted: c terminus: a fixed tail appended.

± gives the standard deviation.
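Note: 24-mer peptide tiles fused after GFP, lentivirally expressed, FACS-sorted into six equal bins by GFP/DsRed ratio, decoded by Illumina sequencing, PSI is the read-weighted mean bin number.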

The sequence CHRHYHSMEVFTHYDLLNLNGTKV [LOXL2] gave a protein stability index (treatment: DMSO) of 2.21 ± 0.12 and a protein stability index (treatment: MLN4924 1 uM, 8 h) of 1.99 ± 0.25.
On the same counts, the results for CIDFNKNLNEDDTFLVFSKAELGA are 2.88 ± 0.63 and 2.81 ± 0.24.
In turn, CLETLPEFRDDRDLVMALSAGGHG [KCNA4] had a protein stability index (treatment: DMSO) of 3.68 ± 0.26 and a protein stability index (treatment: MLN4924 1 uM, 8 h) of 3.51 ± 0.34.
Turning to CLQQKQVVAEAQTRVSQLGLQVEG [LRRC45], the protein stability index runs as follows: (treatment: DMSO) 3.86 ± 0.24; (treatment: MLN4924 1 uM, 8 h) 3.8 ± 0.38.
Taken in the same sequence, the figures for CLTQSTAAPAVRASSSPVTLRQKT [SLA] were 4.02 ± 0.35 and 4.35 ± 0.052.
Taken in the same sequence, the figures for CQVALNFANEEEAKKFRKAVTDLL [WASL] were 1.91 ± 0.35 and 2.53 ± 0.84.
Taken in the same sequence, the figures for DAPLPGSKAKPKPPKQAQKEQRKQ [TBC1D10A] were 5.45 ± 0.087 and 5.31 ± 0.18.
Turning to DDATLSRLELERKIESLMDEIEFL [PRPH], the protein stability index runs as follows: (treatment: DMSO) 4 ± 0.23; (treatment: MLN4924 1 uM, 8 h) 3.88 ± 0.28.
DDRVLSSLVRDTIARVHGTFGAAA [POP5] displayed a protein stability index (treatment: DMSO) of 2.89 ± 0.29 and a protein stability index (treatment: MLN4924 1 uM, 8 h) of 2.96 ± 0.23.
Regarding DDSKFPIEDTPLVPVSFIFIFTFV [PCDHGA10], the protein stability index was found to be 3.32 ± 0.36 (treatment: DMSO) and 2.09 ± 0.062 (treatment: MLN4924 1 uM, 8 h).
Taken in the same sequence, the figures for DEDDVDQELANIDPTWIESPKTNG [SRPK2] were 5.23 ± 0.63 and 5.2 ± 0.36.
With DEELGGSSRVPVGGGPEATLSISD [ZBTB22], the protein stability index (treatment: DMSO) worked out at 5.37 ± 0.18 and the protein stability index (treatment: MLN4924 1 uM, 8 h) is 5.42 ± 0.06.
Taken in the same sequence, the figures for DEGEEFDDWEDDYDYPEEEQLSGA [EID1] were 5.39 ± 0.22 and 5.3 ± 0.22.
On the same counts, the results for DENYNLLPHGVNFQDAIFPDTQEN [CCDC3] are 4.92 ± 0.29 and 5.06 ± 0.21.
On the same counts, the results for DEPTFKVLLKTADPRYELPSRKYI [ZBED1] are 2.81 ± 0.26 and 3.19 ± 0.4.
Regarding DEQEKGIVTKFYQLSATGQKLYVR [FAN1], the protein stability index stood at 2.92 ± 0.22 (treatment: DMSO) and 2.94 ± 0.54 (treatment: MLN4924 1 uM, 8 h).
For DGDIPNIPAEENASTSTPSSTLVR [FAM189A2], the protein stability index by setting is: (treatment: DMSO) 5.47 ± 0.2; (treatment: MLN4924 1 uM, 8 h) 5.55 ± 0.15.
On the same counts, the results for DGKLQLLQKLLSGRSREELDELTG [FEM1A] are 3.24 ± 0.31 and 3.29 ± 0.26.
Consider DGRQLRKMLRKEAAARCVVLDCRP [DUSP5], for which the protein stability index stood at 2.69 ± 0.24 (treatment: DMSO) and 3.07 ± 0.23 (treatment: MLN4924 1 uM, 8 h).
In the case of DHPGIHEPLEPEVKYVGNMHGNEA [CPN1], the protein stability index amounted to 4.98 ± 0.56 (treatment: DMSO) and 5.08 ± 0.19 (treatment: MLN4924 1 uM, 8 h).
Taken in the same sequence, the figures for DHPIVETLRQKAEADKNDKAVKDL [HSP90AB1] were 5.58 ± 0.29 and 5.64 ± 0.14.
On to DIFPELDDILYHVKGMQRIVNQWS [DLC1], for which the protein stability index is, setting by setting: (treatment: DMSO) 2.42 ± 0.13; (treatment: MLN4924 1 uM, 8 h) 2.49 ± 0.12.
Taken in the same sequence, the figures for DIYKQECSSRPLQKGSHPMCKEHE [TRIM63] were 4.49 ± 0.24 and 4.67 ± 0.23.
Taken in the same sequence, the figures for DKWVNDPHRMDRRLLALIYLAHAS [GOLPH3] were 2.63 ± 0.91 and 2.1 ± 0.31.
Taken in the same sequence, the figures for DLCLLYPPFMIALACLHVACVVQQ [CCNC] were 3.11 ± 0.28 and 3.12 ± 0.24.
Take DLDANLRKLNSRLFVIRGQPADVF [CRY1]: the protein stability index runs as follows: (treatment: DMSO) 2.07 ± 0.29; (treatment: MLN4924 1 uM, 8 h) 2.55 ± 0.4.
Consider DLGLAPRELAERGVRIVSRGRTQL [PCDHGA10], for which the protein stability index came to 3.75 ± 0.16 (treatment: DMSO) and 3.81 ± 0.25 (treatment: MLN4924 1 uM, 8 h).
Taken in the same sequence, the figures for DLSDNRNEDPLVLLAWRCTKLSLL [FBXO33] were 2.54 ± 0.38 and 2.22 ± 0.24.
Take DMFDADGGGDISVKELGTVMRMLG [TNNC2]: the protein stability index (treatment: MLN4924 1 uM, 8 h) worked out at 2.58 ± 0.16.
Take DMIYVSGGFDGSRRHTSMERYDPN [KLHL12]: the protein stability index was 3.85 ± 0.15 (treatment: DMSO) and 4 ± 0.3 (treatment: MLN4924 1 uM, 8 h).
For the sequence DNDRTTPSDLDSTGNSLNEPEEPS [DLC1], the protein stability index reads like this: (treatment: DMSO) 5.61 ± 0.21; (treatment: MLN4924 1 uM, 8 h) 5.63 ± 0.11.
On the same counts, the results for DNEYAYLKAIIFFDPDAKGLSDPG [HNF4A] are 1.92 ± 0.19 and 2.14 ± 0.092.
Taken in the same sequence, the figures for DPDECGSDYISEFRFAPNHTKELE [EPB41L3] were 2.91 ± 0.91 and 3.67 ± 0.79.
For DPGLGEGPALWLRSTCVYVCALSA [PLEKHN1], the protein stability index by setting is: (treatment: DMSO) 2.55 ± 0.045; (treatment: MLN4924 1 uM, 8 h) 2.09 ± 0.38.
Taken in the same sequence, the figures for DRGSCVSTTEGIQLAKELGATYLE [RHOBTB3] were 4.45 ± 0.14 and 4.47 ± 0.24.
With DSGQYWPSVYHAMPSPCSCMSFNP [WDFY2], the protein stability index by setting is: (treatment: DMSO) 2.37 ± 0.19; (treatment: MLN4924 1 uM, 8 h) 2.31 ± 0.44.
Taken in the same sequence, the figures for DSHVSSCSEDWVGYQRKCYFISTV [CD69] were 2.46 ± 0.88 and 2.65 ± 0.6.
On the same counts, the results for DSMYGECRTYIIHYYLMDDTVEIR [EFHC1] are 2.35 ± 0.6 and 2.6 ± 0.69.
On the same counts, the results for DTGHDSDKSDQSLPNASADSLGGS [TRAF3IP2] are 5.35 ± 0.42 and 5.51 ± 0.18.
Turning to DTSKQKKMETMYPFIVTLEGNALQ [ZNF449], the protein stability index is, setting by setting: (treatment: DMSO) 3.12 ± 0.34; (treatment: MLN4924 1 uM, 8 h) 2.85 ± 0.12.
Taken in the same sequence, the figures for DVPTIQEKVNEGKYRSYEEFKADA [ZMYND11] were 5.21 ± 0.3 and 5.26 ± 0.15.
Taken in the same sequence, the figures for DVTSGDHGDYFRLLLPGIYTVSAT [CPN1] were 2.29 ± 0.57 and 2.02 ± 0.23.
DVVCKNQDELRNRSVKVICLGSLA [FAN1]: the protein stability index is, setting by setting: (treatment: DMSO) 2.72 ± 0.26; (treatment: MLN4924 1 uM, 8 h) 2.98 ± 0.2.
On the same counts, the results for DWNEWRDYHLLHPVENIPEIILYW [SLC25A25] are 2.35 ± 0.51 and 2.2 ± 0.12.
Taken in the same sequence, the figures for DWVVVKEPVIKVAAIDNGLAFPLK [PI4K2A] were 2.52 ± 0.43 and 2.94 ± 0.29.
Taken in the same sequence, the figures for DYFISYGIEHAQCVPPSEFSEPSF [ETS1] were 2.49 ± 0.26 and 2.67 ± 0.18.
With DYFPSEDFYRCGYCKNESGSRSNG [ATE1], the protein stability index stood at 3.07 ± 0.32 (treatment: DMSO) and 3.35 ± 0.49 (treatment: MLN4924 1 uM, 8 h).
Taken in the same sequence, the figures for DYRPMNHEAFKDELKTFRLKTRSW [CDC25B] were 3.46 ± 0.27 and 3.41 ± 0.25.
On to EAKSAQPADGWKGERPRSEEDNEL [GCH1], for which the protein stability index worked out at 5.56 ± 0.098 (treatment: DMSO) and 5.35 ± 0.16 (treatment: MLN4924 1 uM, 8 h).
EATQFLKQILDGVHYLHSKRIAHF [DAPK3]: the protein stability index was determined as 2.9 ± 0.44 (treatment: DMSO) and 2.92 ± 0.56 (treatment: MLN4924 1 uM, 8 h).
Take ECFMCSDCGLNLKQRGYFFLDERL [PDLIM4]: the protein stability index came to 2.26 ± 0.32 (treatment: DMSO) and 2.08 ± 0.34 (treatment: MLN4924 1 uM, 8 h).
Take EDDAQSRRDEQDDDDKGDSKETRL [GOLPH3]: the protein stability index is, setting by setting: (treatment: DMSO) 5.54 ± 0.21; (treatment: MLN4924 1 uM, 8 h) 5.66 ± 0.17.
Take EDEDEDEDEDEDKEEEEEDCSEEY [TAF7L]: the protein stability index reads like this: (treatment: DMSO) 5.65 ± 0.31; (treatment: MLN4924 1 uM, 8 h) 5.58 ± 0.13.
EDQHRLYQQIKAGAYDFPSPEWDT [CAMK2D] gave a protein stability index (treatment: DMSO) of 4.36 ± 0.26 and a protein stability index (treatment: MLN4924 1 uM, 8 h) of 4.42 ± 0.21.
On the same counts, the results for EDQTEYLEERRVKEVVKKHSQFIG [HSP90AB1] are 4.11 ± 0.16 and 4.93 ± 0.17.
On the same counts, the results for EDTSNDESSILGTDIDLQTIDNDI [M1AP] are 5.56 ± 0.093 and 5.56 ± 0.18.
With EEALRKNTEEQLEIALAPYQHLEE [MTUS2], the protein stability index stood at 5.27 ± 0.18 (treatment: DMSO) and 5.22 ± 0.23 (treatment: MLN4924 1 uM, 8 h).
Take EEEGGEEEEEAAMYEEEMEREEIT [FAM50A]: the protein stability index reads like this: (treatment: DMSO) 5.6 ± 0.13; (treatment: MLN4924 1 uM, 8 h) 5.71 ± 0.11.
On to EEEGIETQYFAELLMTSGVVLCEG [CNOT7], for which the protein stability index reads like this: (treatment: DMSO) 3.27 ± 0.24; (treatment: MLN4924 1 uM, 8 h) 3.39 ± 0.12.
On the same counts, the results for EEEGPSTFPDLESEFQAALSRKVA [MAGEA3] are 4.95 ± 0.22 and 5.12 ± 0.22.
Taken in the same sequence, the figures for EEEISETGELVGPFVSAMPTPMPH [ZBED2] were 5.1 ± 0.2 and 5.17 ± 0.15.
As for EEEPGVRNGMASEGLNSSLCSPGH [PSD2], the protein stability index runs as follows: (treatment: DMSO) 5.1 ± 0.23; (treatment: MLN4924 1 uM, 8 h) 5.26 ± 0.13.
Take EEKAFESVIEPVQESSFRSRKIAV [MIA2]: the protein stability index by setting is: (treatment: DMSO) 4.31 ± 0.16; (treatment: MLN4924 1 uM, 8 h) 4.11 ± 0.22.
On the same counts, the results for EELCAQSARCVVSFNILVEDRVKL [PCDHGA10] are 2.57 ± 0.19 and 2.21 ± 0.4.
For EEREEGPPRIPQADQWKSSNKSLV [RHOBTB1], the protein stability index reads like this: (treatment: DMSO) 4.99 ± 0.22; (treatment: MLN4924 1 uM, 8 h) 5.08 ± 0.29.
For the sequence EETESSDDVEVLTLKKFKGDLAYR [C8orf76], the protein stability index (treatment: DMSO) came out at 4.71 ± 0.19 and the protein stability index (treatment: MLN4924 1 uM, 8 h) is 4.61 ± 0.16.
For EFKADAQLLLHNTVIFYGADSEQA [ZMYND11], the protein stability index by setting is: (treatment: DMSO) 3.06 ± 0.32; (treatment: MLN4924 1 uM, 8 h) 3.32 ± 0.23.
Taken in the same sequence, the figures for EFKSSFSQSFSLYVKYQVAIHQDP [ATE1] were 2.63 ± 0.95 and 2.52 ± 0.95.
On the same counts, the results for EGASSDNGCEVKNRKSILSRHLNS [PHTF1] are 4.74 ± 0.46 and 4.68 ± 0.16.
For EGLYEQAFQLLRRFVQAEGRRATL [TRADD], the protein stability index reads like this: (treatment: DMSO) 2.28 ± 0.13; (treatment: MLN4924 1 uM, 8 h) 2.23 ± 0.54.
On the same counts, the results for EGYTPLMEAAREGHEEMVALLLGQ [ANKRD17] are 4.07 ± 0.32 and 4.07 ± 0.22.
On the same counts, the results for EHPFLVNLWYSFQDEEDMFMVVDL [STK32A] are 2.9 ± 0.73 and 2.63 ± 0.58.
On the same counts, the results for EHPNVVRLMDVCATSRTDREIKVT [CDK4] are 3.93 ± 0.36 and 4.14 ± 0.38.

The values are drawn from the supplement of paper PMC10567573.
